Measured values: paper PMC7720148

Experiments:
Assay in all cases: single-molecule force spectroscopy
[1] = biological target: unmodified nucleosome (human histone octamer on 601 DNA) in nucleosome arrays (human) (UniProt P04908)
[2] = biological target: H3K27M mutant nucleosome (100% H3K27M 12-mer array) (human) (UniProt P04908)
[3] = biological target: 12-mer array with 50% H3K27M mutant copies of H3 (human) (UniProt P04908)
[4] = biological target: 12-mer array with an equimolar mixture of unmodified and H3K27me3-containing nucleosomes (UniProt P04908)

PRC2–AEBP2 complex (from UniProt Q15910;O75530;Q09028;Q15022;Q6ZN18)
average transition force (all clusters) [1]: 14.5 pN

Polycomb repressive complex 2 (PRC2) core complex (from UniProt Q15910;O75530;Q09028;Q15022)
average C3 transition force, with SAM [2]: 19.6 pN
average C4 transition force, with SAM [2]: 26.1 pN
average transition force (all clusters), with SAM [2]: 19.6 pN
average C3 transition force, with SAM [1]: 17.8 pN
average C4 transition force, with SAM [1]: 19.8 pN
average rupture force of C3 transitions (adjacent nucleosome pair) [1]: 16.3 pN
average transition force (all clusters) [1]: 17 pN
average transition force (all clusters), with SAM [1]: 17.8 pN
average transition force (all clusters), with SAM [3]: 18.3 pN
average rupture force of C3 transitions [4]: 14.6 pN
average rupture force of C4 transitions [4]: 16.9 pN
